For the assay, the target named is T1, SARS-CoV-2 S trimer (SARS-CoV-2, Wuhan-Hu-1 (GenBank …, stabilised)).
T1 construct: also called Spike (S) protein
Briefly: cryo-EM structure. The note with it: both partners purified.

B1: P17 Fab (Fab, V domains shown)
VH: QQLVESGGGVVQPGRSLRLSCAASGFTFSSYAMHWVRQAPGKGLEWVAVISYDGSNKYYADSVKGRFTISRDNSKNTLYLQMNSLRAEDTAVYYCARHATLMNNKDIWGQGTLVTVSS
VL: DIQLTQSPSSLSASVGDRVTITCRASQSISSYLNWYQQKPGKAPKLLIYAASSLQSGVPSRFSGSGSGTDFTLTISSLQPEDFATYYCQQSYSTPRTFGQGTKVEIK
notes: also called P17 Fabs
In general, stoichiometry N refers to a count of units in the complex or per binding partner. Consider B1, for which the “stoichiometry N” value was 3 Fabs per S trimer.

B2: H014 Fab (Fab, V domains shown)
VH: VQLVQSGAEVKKPGATVKISCKVSGYSFSNYYIHWVKQAPGKSLEWIGYIDPFNGGTSDNLKFKGAATLTADTSTDTAYMELSSLRSEDTAVYYCARSEYDPYYVMDYWGQGTTVTVSS
VL: IVLTQSPFQSVSPKEKVTITCRASQSISSNLHWYQQKPDQSPKLLIKYASQSISGIPSRFSGSGSGTDFTLTINSLEAEDFGIYFCQQTNFWPYIFGQGTKLEIL
Turning to B2, the “stoichiometry N” value was 3 Fabs per S trimer.

Values taken from article PMC7705432 (Cell Research, 2020).
